Measured values as given in paper PMC5041490 (Nucleic Acids Research, 2016).
Residue numbers refer to the chain shown, from its start. Names and notes keep the numbering of the source. Blank lines part the entries; values can stand above or below the binder they belong to.

How the values were obtained:
GST-L4 = GST-L4 (UniProt P36578 1-427); experiment: pull-down
GST-L3 = GST-L3 (UniProt P39023 1-403); experiment: pull-down

binding result (GST-L4): binds | binding result (GST-L3): binds
B1: His-G5(1–739) W14A (domain or fragment)
chain: MGQEPRTLPPSPNAYCARCSDAVPGGLFGFAARTSVFLVRVGPGAGESPGTPPFRVIGELVGHTERVSGFTFSHHPGQYNLCATSSDDGTVKIWDVETKTVVTEHALHQHTISTLHWSPRVKDLIVSGDEKGVVFCYWFNRNDSQHLFIEPRTIFCLTCSPHHEDLVAIGYKDGIVVIIDISKKGEVIHRLRGHDDEIHSIAWCPLPGEDCLSINQEETSEEAEITNGNAVAQAPVTKGCYLATGSKDQTIRIWSCSRGRGVMILKLPFLKRRGGGIDPTVKERLWLTLHWPSNQPTQLVSSCFGGELLQWDLTQSWRRKYTLFSASSEGQNHSRIVFNLCPLQTEDDKQLLLSTSMDRDVKCWDIATLECSWTLPSLGGFAYSLAFSSVDIGSLAIGVGDGMIRVWNTLSIKNNYDVKNFWQGVKSKVTALCWHPTKEGCLAFGTDDGKVGLYDTYSNKPPQISSTYHKKTVYTLAWGPPVPPMSLGGEGDRPSLALYSCGGEGIVLQHNPWKLSGEAFDINKLIRDTNSIKYKLPVHTEISWKADGKIMALGNEDGSIEIFQIPNLKLICTIQQHHKLVNTISWHHEHGSQPELSYLMASGSNNAVIYVHNLKTVIESSPESPVTITEPYRTLSGHTAKITSVAWSPHHDGRLVSASYDGTAQVWDALREEPLCNFRGHRGRLLCVAWSPLDPDCIYSGADDFCVHKWLTSMQDHSRPPQGKKSIELEKKRLSQPKA

binding result (GST-L4): binds | binding result (GST-L3): binds
B2: His-G5(1–739) Y15A (domain or fragment)
chain: B1 chain with A14W, Y15A
